Data reported in US20260125472A1 (HEFEI TG IMMUNOPHARMA, published 2026).

B1: Cross310×PDL1 (bispecific antibody, human IgG1, kappa, L234A L235A)
scFv: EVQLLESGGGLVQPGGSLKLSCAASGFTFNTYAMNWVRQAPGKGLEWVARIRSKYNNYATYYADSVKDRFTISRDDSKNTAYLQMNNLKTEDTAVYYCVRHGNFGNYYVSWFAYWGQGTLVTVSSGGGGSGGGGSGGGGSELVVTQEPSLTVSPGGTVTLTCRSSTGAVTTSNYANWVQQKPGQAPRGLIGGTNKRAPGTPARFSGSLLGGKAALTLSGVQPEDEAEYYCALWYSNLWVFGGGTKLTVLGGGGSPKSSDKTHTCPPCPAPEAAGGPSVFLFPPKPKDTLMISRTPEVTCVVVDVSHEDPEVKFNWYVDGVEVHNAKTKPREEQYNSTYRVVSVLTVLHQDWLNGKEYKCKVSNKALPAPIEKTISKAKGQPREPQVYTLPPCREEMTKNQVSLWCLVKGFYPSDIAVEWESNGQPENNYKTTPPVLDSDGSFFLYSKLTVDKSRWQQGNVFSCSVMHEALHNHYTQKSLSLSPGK
heavy: QVQLVQSGAEVKKPGASVKVSCKASGYSFTGYYMHWVRQAPGQGLEWIGRINPYNGATTYSQNFKDRATMTVDTSISTAYMELSRLRSDDTAVYYCVPTGMGYFLMDYWGQGTLVTVSSASTKGPSVFPLAPSSKSTSGGTAALGCLVKDYFPEPVTVSWNSGALTSGVHTFPAVLQSSGLYSLSSVVTVPSSSLGTQTYICNVNHKPSNTKVDKKVEPKSCDKTHTCPPCPAPEAAGGPSVFLFPPKPKDTLMISRTPEVTCVVVDVSHEDPEVKFNWYVDGVEVHNAKTKPREEQYNSTYRVVSVLTVLHQDWLNGKEYKCKVSNKALPAPIEKTISKAKGQPREPQVCTLPPSREEMTKNQVSLSCAVKGFYPSDIAVEWESNGQPENNYKTTPPVLDSDGSFFLVSKLTVDKSRWQQGNVFSCSVMHEALHNHYTQKSLSLSPGK
light: DIQLTQSPSFLSASVGDRVTITCKASQDVGSAVVWYQQKPGKAPKLLIYWASTRHTGVPSRFSGSGSGTEFTLTISSLQPEDFATYFCQQFTSYPTFGQGTKLEIKRTVAAPSVFIFPPSDEQLKSGTASVVCLLNNFYPREAKVQWKVDNALQSGNSQESVTEQDSKDSTYSLSSTLTLSKADYEKHKVYACEVTHQGLSSPVTKSFNRGEC
B2: Cross326×PDL1 (bispecific antibody, human IgG1, kappa, L234A L235A)
scFv: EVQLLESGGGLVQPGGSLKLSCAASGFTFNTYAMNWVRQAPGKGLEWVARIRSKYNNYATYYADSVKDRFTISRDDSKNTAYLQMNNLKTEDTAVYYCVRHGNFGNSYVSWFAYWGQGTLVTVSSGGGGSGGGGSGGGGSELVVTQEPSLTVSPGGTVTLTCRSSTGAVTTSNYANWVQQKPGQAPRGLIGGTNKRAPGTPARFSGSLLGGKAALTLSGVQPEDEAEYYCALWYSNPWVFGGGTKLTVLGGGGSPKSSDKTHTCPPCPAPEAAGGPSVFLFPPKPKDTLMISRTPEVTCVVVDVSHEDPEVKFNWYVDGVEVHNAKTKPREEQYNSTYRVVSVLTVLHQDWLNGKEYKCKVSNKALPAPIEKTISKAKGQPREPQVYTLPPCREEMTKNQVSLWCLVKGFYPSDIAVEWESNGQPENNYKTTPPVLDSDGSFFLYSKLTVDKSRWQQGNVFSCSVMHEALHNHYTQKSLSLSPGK
heavy: B1 heavy
light: B1 light
B3: Cross317 (antibody, human IgG1, kappa, V domains shown)
VH: EVQLLESGGGLVQPGGSLKLSCAASGFTFNTYAMNWVRQAPGKGLEWVARIRSKYNNYATYYADSVKDRFTISRDDSKNTAYLQMNNLKTEDTAVYYCVRHGNFGNSYVSWFAGWGQGTLVTVSS
VL: ELVVTQEPSLTVSPGGTVTLTCRSSTGAVTTSNYANWVQQKPGQAPRGLIGGTNKRAPGTPARFSGSLLGGKAALTLSGVQPEDEAEYYCALWYSNLWVFGGGTKLTVLR

Assays:
[1] = biological target: T1, PDL1 on A-375 melanoma cells, HCT-15 colorectal cancer cells and A549 lung cancer cells (UniProt Q9NZQ7 19-290, limits assumed); test: flow cytometry, HCT-15 cells, binding ratio % [panel A]
T1 construct: whole, on cells
T1 sequence (Q9NZQ7 19-290 limits assumed): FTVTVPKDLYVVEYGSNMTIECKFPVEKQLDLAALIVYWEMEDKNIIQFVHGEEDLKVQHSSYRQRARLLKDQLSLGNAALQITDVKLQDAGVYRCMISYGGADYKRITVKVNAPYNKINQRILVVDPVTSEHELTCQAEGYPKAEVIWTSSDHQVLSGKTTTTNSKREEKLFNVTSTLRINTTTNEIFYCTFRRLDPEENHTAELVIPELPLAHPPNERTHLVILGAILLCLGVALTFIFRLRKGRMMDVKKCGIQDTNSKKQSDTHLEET
Protocol: (2) The tumor cells were diluted to 2×10⁶/ml with PBS and added to a 1.5 ml EP tube at a volume of 100 μl/tube, and goat serum was added thereto at 10 μl/tube. The cells were blocked at 4° C. for 30 min. The serially diluted bispecific antibodies, Cross3×Trop2, Cross303×Trop2, Cross307×Trop2, Cross308×Trop2, Cross309×Trop2, Cross310×Trop2, Cross311×Trop2, Cross312×Trop2, Cross313×Trop2, Cross314×Trop2, Cross316×Trop2, Cross317×Trop2, Cross318×Trop2, Cross323×Trop2, Cross325×Trop2, Cross326×Trop2, and Cross3×PDL1, Cross303×PDL1, Cross307×PDL1, Cross308×PDL1, Cross309×PDL1, Cross310×PDL1, Cross311×PDL1, Cross312×PDL1, Cross313×PDL1, Cross314×PDL1, Cross316×PDL1, Cross317×PDL1, Cross318×PDL1, Cross323×PDL1, Cross325×PDL1, Cross326×PDL1, and control hIgG1LALA (purchased from Bio-Tech) were added and incubated at 4° C. for 30 min. 1 ml of PBS was added to the EP tube, followed by centrifugation at 3500 rpm for 5 min at 4° C. The supernatant was discarded, and the cells were washed again with PBS. After centrifugation, the supernatant was completely discarded, and the cells were resuspended with PBS at 100 μl/tube. Alexa-647-labeled goat anti-human IgG secondary antibody (purchased from Jackson lab) was added at 1 μl/tube and incubated at 4° C. in the dark for 30 min. The cells were washed twice with PBS, and the supernatant was completely discarded after centrifugation. […]

[2] = biological target: T1, PDL1 on A-375 melanoma cells, HCT-15 …; test: flow cytometry, A-375 cells, binding ratio % [panel A]
Protocol: (2) The tumor cells were diluted to 2×10⁶/ml with PBS and added to a 1.5 ml EP tube at a volume of 100 μl/tube, and goat serum was added thereto at 10 μl/tube. The cells were blocked at 4° C. for 30 min. The serially diluted bispecific antibodies, Cross3×Trop2, Cross303×Trop2, Cross307×Trop2, Cross308×Trop2, Cross309×Trop2, Cross310×Trop2, Cross311×Trop2, Cross312×Trop2, Cross313×Trop2, Cross314×Trop2, Cross316×Trop2, Cross317×Trop2, Cross318×Trop2, Cross323×Trop2, Cross325×Trop2, Cross326×Trop2, and Cross3×PDL1, Cross303×PDL1, Cross307×PDL1, Cross308×PDL1, Cross309×PDL1, Cross310×PDL1, Cross311×PDL1, Cross312×PDL1, Cross313×PDL1, Cross314×PDL1, Cross316×PDL1, Cross317×PDL1, Cross318×PDL1, Cross323×PDL1, Cross325×PDL1, Cross326×PDL1, and control hIgG1LALA (purchased from Bio-Tech) were added and incubated at 4° C. for 30 min. 1 ml of PBS was added to the EP tube, followed by centrifugation at 3500 rpm for 5 min at 4° C. The supernatant was discarded, and the cells were washed again with PBS. After centrifugation, the supernatant was completely discarded, and the cells were resuspended with PBS at 100 μl/tube. Alexa-647-labeled goat anti-human IgG secondary antibody (purchased from Jackson lab) was added at 1 μl/tube and incubated at 4° C. in the dark for 30 min. The cells were washed twice with PBS, and the supernatant was completely discarded after centrifugation. The cells were resuspended with PBS at 200 μl/tube and assay was performed using the flow cytometry.

[3] = biological target: T1, PDL1 on A-375 melanoma cells, HCT-15 …; test: flow cytometry, A549 cells, MFI [panel B]
Summary of the method: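 Cells were blocked with goat serum at 4° C for 30 min, then incubated with serially diluted bispecific antibodies or hIgG1LALA control at 4° C for 30 min. Bound antibody was detected with Alexa-647 anti-human IgG (4° C, 30 min, dark) and read by flow cytometry.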

PDL1 protein [4] = biological target: T2, PDL1 protein (UniProt Q9NZQ7 19-238); test: ELISA, coated PDL1 protein, OD450 [panel A]
T2 construct: Bought recombinant protein
T2 sequence (Q9NZQ7 19-238 limits assumed): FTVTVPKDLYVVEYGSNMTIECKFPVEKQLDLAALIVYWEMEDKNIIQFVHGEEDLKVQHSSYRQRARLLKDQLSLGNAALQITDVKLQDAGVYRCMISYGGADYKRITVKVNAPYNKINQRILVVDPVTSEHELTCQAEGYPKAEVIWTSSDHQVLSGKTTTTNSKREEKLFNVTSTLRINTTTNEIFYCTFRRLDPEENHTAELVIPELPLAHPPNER
Summary of the method: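 PDL1 protein coated at 2 μg/ml overnight at 4 °C, blocked with PBS/10% BSA; serially diluted bispecific antibodies or control IgG1LALA bound 1 h at 37 °C. Detection with HRP anti-human Fab secondary antibody and TMB for 3 min, stopped with sulfuric acid, absorbance at 450 nm.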

PDL1 protein [5] = biological target: T2, PDL1 protein; test: ELISA, coated PDL1 protein, OD450 [panel B]
Protocol: (3) PDL1 protein (purchased from Acro) was diluted to 2 μg/ml with PBS buffer, added to a 96-well plate at a volume of 100 μL/well, and placed at 4° C. overnight. The PBS buffer in the 96-well plate was aspirated, and the plate was washed 6 times with PBST (pH 7.2 PBS containing 0.10% Tween 20) buffer. Then, PBS/10% BSA was added at 200 μL/well and incubated at 37° C. for 2 h for blocking. The blocking solution was removed, and the plate was washed six times with PBST. Then, the to-be-tested bispecific antibodies serially diluted with PBST/0.05% BSA, Cross3×PDL1, Cross303×PDL1, Cross307×PDL1, Cross308×PDL1, Cross309×PDL1, Cross310×PDL1, Cross311×PDL1, Cross312×PDL1, Cross313×PDL1, Cross314×PDL1, Cross316×PDL1, Cross317×PDL1, Cross318×PDL1, Cross323×PDL1, Cross325×PDL1, Cross326×PDL1, and control IgG1LALA (purchased from Bio-Tech) were added at 100 μL/well, and incubated at 37° C. for 1 h. The reaction system was removed, and the plate was washed 6 times with PBST. Then, the cells were incubated at 37° C. for 1 h with HRP (horseradish peroxidase)-labeled anti-human secondary antibody (Fab specific) (purchased from Sigma) serially diluted with PBST/0.05% BSA at 100 μL/well. After the plate was washed six times with PBST, TMB (tetramethylbenzidine) was added at 80 μL/well and incubated at room temperature for 3 min. 4 M sulfuric acid was added at 80 μL/well to terminate the reaction. The absorbance was read at 450 nm using a microplate reader.

CD3 on CD8 T cells [6] = biological target: T3, CD3 on CD8 T cells (Homo sapiens (Human), UniProt P07766 23-207); test: flow cytometry, CD8 T cells in PBMCs, MFI [panel B]
T3 construct: Native CD3 complex on CD8 T cells among PBMCs; also called T cells (PBMCs gated with anti-human CD8 antibody)
T3 sequence (P07766 23-207 limits assumed): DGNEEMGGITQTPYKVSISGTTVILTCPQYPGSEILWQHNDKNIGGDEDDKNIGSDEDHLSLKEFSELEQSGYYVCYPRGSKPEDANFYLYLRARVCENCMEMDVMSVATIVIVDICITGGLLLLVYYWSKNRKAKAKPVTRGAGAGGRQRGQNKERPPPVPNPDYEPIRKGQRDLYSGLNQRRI
Protocol: (§1) PBMCs were diluted with PBS to 2×10⁶/mL and added to a 1.5 ml EP tube at a volume of 100 μL/tube, 10 μL/tube of goat serum was added thereto and incubated at 4° C. for 30 min for blocking. […] 1 mL of PBS was added to the EP tube, followed by centrifugation at 3500 rpm for 5 min at 4° C. The supernatant was discarded, and the cells were washed again with PBS. After centrifugation, the supernatant was discarded, and the cells were resuspended with 100 μl/tube PBS. 1 μl/tube Alexa-647-labeled goat anti-human secondary antibody (purchased from Jackson lab) and 0.5 μl/tube PerCP-Cy5.5-labeled anti-human CD8 antibody were added and incubated at 4° C. in the dark for 30 min. The cells were washed twice with PBS, and the supernatant was discarded after centrifugation. The cells were resuspended with […] of PBS and assayed using the flow cytometry.

CD3E&D protein [7] = biological target: T4, CD3E&D protein (UniProt P04234 22-105); test: SPR (Biacore 8K), antibody on CM5 chip, CD3 E&D antigen as analyte; set-up: Fold change: reference not given here
T4 construct: Purchased from Acro; also called CD3 E&D antigens; CD3E&D antigen protein
T4 sequence (chain, as listed by the source limits assumed, chain 1 of 2): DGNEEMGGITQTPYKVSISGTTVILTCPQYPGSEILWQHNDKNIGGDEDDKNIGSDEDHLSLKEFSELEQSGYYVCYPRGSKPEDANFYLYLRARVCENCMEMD
T4 sequence (P04234 22-105 limits assumed, chain 2 of 2): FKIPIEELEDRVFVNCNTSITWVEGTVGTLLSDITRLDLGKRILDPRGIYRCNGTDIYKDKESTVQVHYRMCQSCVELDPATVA
Protocol: In a Biacore 8K (Cytiva) system, the antibody was diluted to 10 μg/mL in HBS-EP running buffer and coupled to a CM5 chip (Cytiva) at a flow rate of 10 μL/min.

CD3 on CD8 T cells [8] = biological target: T3, CD3 on CD8 T cells; test: flow cytometry, CD8 T cells in PBMCs, binding ratio % [panel A]
Protocol: as §1

CD3E&D protein [9] = biological target: T4, CD3E&D protein; test: ELISA, coated CD3E&D protein, OD450 [panel B]
Protocol: In this example, the binding properties of the parental antibody Cross3 and the CD3 affinity-reduced antibody (the production method and the amino acid sequences of the heavy and light chains were shown in Example 1) were detected by ELISA. The CD3E&D protein was coated onto a 96-well plate by the inventors, and the strength of the signal after the addition of the antibody was used to determine the binding properties of the antibody and CD3E&D.
CD3E&D protein (purchased from Acro) was diluted to 2 μg/ml with PBS buffer, added to a 96-well plate at a volume of 100 μL/well, and placed at 4° C. overnight. The PBS buffer in the 96-well plate was aspirated, and the plate was washed 6 times with PBST (pH 7.2 PBS containing 0.1% Tween 20) buffer. Then, 200 μL/well PBS/10% BSA was added and incubated at 37° C. for 2 h for blocking. The blocking solution was removed, and the plate was washed six times with PBST. Then, the to-be-tested antibodies serially diluted with PBST/0.05% BSA, Cross3, Cross303, Cross307, Cross308, Cross309, Cross310, Cross311, Cross312, Cross313, Cross314, Cross316, Cross317, Cross318, Cross323, Cross325, Cross326, and control IgG1 (purchased from Bio-Tech) were added at 100 μL/well, and incubated at 37° C. for 1 h. The reaction system was removed, and the plate was washed 6 times with PBST. Then, the cells were incubated at 37° C. for 1 h with HRP (horseradish peroxidase)-labeled anti-human secondary antibody (Fab specific) (purchased from Sigma) serially diluted with PBST/0.05% BSA at 100 μL/well. The plate was washed six times with PBST, TMB (tetramethylbenzidine) was added at 80 μL/well and incubated at room temperature for 3 min. 4 M sulfuric acid was added at 80 μL/well to terminate the reaction. The absorbance was read at 450 nm using a microplate reader.

Row | Binder | EC50 (read off the curve) [1] | EC50 (read off the curve) [2] | EC50 (read off the curve) [3] | EC50 (read off the curve) (PDL1 protein [4]) | EC50 (read off the curve) (PDL1 protein [5]) | EC50 (read off the curve) (CD3 on CD8 T cells [6]) | Fold change (CD3E&D protein [7]) | Kd (CD3E&D protein [7]) | koff (CD3E&D protein [7]) | kon (CD3E&D protein [7]) | EC50 (read off the curve) (CD3 on CD8 T cells [8]) | EC50 (read off the curve) (CD3E&D protein [9])
1 | B1 | ~0.7 µg/mL | ~0.7 µg/mL | ~2 µg/mL | ~0.5 µg/mL |  |  |  |  |  |  |  | 
2 | B2 | ~0.07 µg/mL | ~0.07 µg/mL |  |  | ~0.1 µg/mL |  |  |  |  |  |  | 
3 | B3 |  |  |  |  |  | ~2 µg/mL | 16.2 | 2.68 nM | 0.00761 s⁻¹ | 2.84e+06 M⁻¹ s⁻¹ | ~0.5 µg/mL | ~0.03 µg/mL
